This note sets out measurements from patent US20200157519A1 (IMMUNWORK, published 2020).

The target of the assay is T1, mouse fibrin (mouse fibrinogen coated on the plate and treated with thrombin) (mouse, UniProt E9PV24 37-557; Q8K0E8 35-481; Q8VCM7 26-436).
T1 construct: Made on the plate from mouse fibrinogen (Sigma) with thrombin
T1 sequence (looked up) 1: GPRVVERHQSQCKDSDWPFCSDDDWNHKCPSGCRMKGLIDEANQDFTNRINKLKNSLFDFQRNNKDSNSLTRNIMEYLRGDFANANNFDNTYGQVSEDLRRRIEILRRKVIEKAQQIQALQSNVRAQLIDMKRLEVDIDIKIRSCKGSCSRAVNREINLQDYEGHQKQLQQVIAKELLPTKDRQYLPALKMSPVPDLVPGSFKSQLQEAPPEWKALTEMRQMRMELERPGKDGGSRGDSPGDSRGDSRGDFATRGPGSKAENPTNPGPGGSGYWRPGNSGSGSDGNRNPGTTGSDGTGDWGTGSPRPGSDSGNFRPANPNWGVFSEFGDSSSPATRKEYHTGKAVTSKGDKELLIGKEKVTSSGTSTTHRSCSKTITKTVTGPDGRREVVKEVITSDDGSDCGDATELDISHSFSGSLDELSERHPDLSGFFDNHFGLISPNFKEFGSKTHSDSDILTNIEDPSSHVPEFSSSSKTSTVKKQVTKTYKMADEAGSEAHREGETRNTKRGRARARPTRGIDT
T1 sequence (looked up) 2: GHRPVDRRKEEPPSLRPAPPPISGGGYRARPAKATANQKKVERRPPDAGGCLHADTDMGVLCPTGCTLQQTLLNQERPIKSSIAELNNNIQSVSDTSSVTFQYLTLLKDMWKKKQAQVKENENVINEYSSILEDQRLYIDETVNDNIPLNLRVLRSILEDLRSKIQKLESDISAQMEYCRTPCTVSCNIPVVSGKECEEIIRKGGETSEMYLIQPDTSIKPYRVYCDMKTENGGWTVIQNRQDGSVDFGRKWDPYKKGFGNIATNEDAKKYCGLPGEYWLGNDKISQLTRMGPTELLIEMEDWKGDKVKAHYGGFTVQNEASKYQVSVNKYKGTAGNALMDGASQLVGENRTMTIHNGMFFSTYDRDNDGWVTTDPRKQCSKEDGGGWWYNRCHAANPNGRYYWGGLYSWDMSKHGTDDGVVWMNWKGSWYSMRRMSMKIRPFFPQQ
T1 sequence (looked up) 3: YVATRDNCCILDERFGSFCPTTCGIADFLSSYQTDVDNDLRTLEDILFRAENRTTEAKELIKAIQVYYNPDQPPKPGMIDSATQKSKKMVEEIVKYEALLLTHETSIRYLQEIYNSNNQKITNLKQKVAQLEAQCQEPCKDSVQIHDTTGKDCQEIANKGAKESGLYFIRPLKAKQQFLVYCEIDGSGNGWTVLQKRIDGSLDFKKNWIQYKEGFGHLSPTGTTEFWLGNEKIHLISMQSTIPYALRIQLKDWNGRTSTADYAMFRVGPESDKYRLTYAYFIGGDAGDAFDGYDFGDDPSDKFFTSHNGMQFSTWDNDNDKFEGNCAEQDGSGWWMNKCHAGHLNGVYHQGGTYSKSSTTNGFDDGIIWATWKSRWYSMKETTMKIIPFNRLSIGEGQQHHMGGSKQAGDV
As to the kind of experiment: ELISA at 200 nM on mouse fibrin plate, HRP-protein L. The procedure:
The procedures for ELISA analysis were similar to the procedures described in the previous Examples. Briefly, fibrinogen from mouse (Sigma) diluted with PBS was added to a 96-well polystyrene microplate at 100 μL/well, and then the plate was sealed and allowed to stand at 4° C., overnight.
Each fibrin plate was prepared as follows. 100 μL of TBS containing a final concentration of 1.0 U/mL thrombin (Sigma), 2 mM CaCl₂ and 7 mM L-cysteine (Merck) was added to the wells of the fibrinogen plate, which was then washed with TBS and blocked with the buffer (5% non-fat dry milk/PBS). Thereafter, 100 μL of reteplase-(3D5-scFv) at various final concentrations (600 nM, 200 nM, 66 nM, 22 nM, 7.4 nM, 2.5 nM, and 0.8 nM) were added to each well and incubate at room temperature for 1 hour. The plate was than washed for three times, and HRP-conjugated protein L diluted to 1/5000 was added to the wells and incubated for 1 hour at room temperature. The wells were washed three times and added with 100 μL of TMB substrate buffer. 5 minutes later, the color development was stopped with 1 M HCl. The optical density (OD) was measured at 450 nm using a microplate reader.

B1: recombinant reteplase-(3D5 VL-218-VH scFv α fibrin) protein (other)
chain: SYQGNSDCYFGNGSAYRGTHSLTESGASCLPWNSMILIGKVYTAQNPSAQALGLGKHNYCRNPDGDAKPWCHVLKNRRLTWEYCDVPSCSTCGLRQYSQPQFRIKGGLFADIASHPWQAAIFAKHRRSPGERFLCGGILISSCWILSAAHCFQERFPPHHLTVILGRTYRVVPGEEEQKFEVEKYIVHKEFDDDTYDNDIALLQLKSDSSRCAQESSVVRTVCLPPADLQLPDWTECELSGYGKHEALSPFYSERLKEAHVRLYPSSRCTSQHLLNRTVTDNMLCAGDTRSGGPQANLHDACQGDSGGPLVCLNDGRMTLVGIISWGLGCGQKDVPGVYTKVTNYLDWIRDNMRPASGGGGSGGGGSGGGGSDIQMTQSPSSLSASVGDRVTITCRASQDVSNNVAWYQQKPGKAPKLLIFWSPWLYSGVPSRFSGSGSGTDFTLTISSLQPEDFATYYCQQGWDSPVTFGQGTKVEIKRGSTSGSGKPGSGEGSTKGEVQLVESGGGLVQPGGSLRLSCAASGFTISDFGIHWVRQAPGKGLEWVASIWPSGGYTYYADSVKGRFTISADTSKNTAYLQMNSLRAEDTAVYYCARSWFYSWYDYWGQGTLVTVSS
notes: Fusion: reteplase, flexible linker, 3D5 VL, 218 linker, 3D5 VH; also called reteplase-(3D5 scFv); reteplase-(3D5-scFv)
In the case of B1, the binding result is “binds”.
